# Measurements: publication PMC9736959, “Enzyme-Linked Aptamer Kits for Rapid, Visual, and Sensitive Determination of Lactoferrin in Dairy Products”
# B1: Lf aptamer (biotin-Apt) (ssDNA)
# DNA: TGGTGCTGCCCCCCTAGTCTCCGGCTGCTTCTTGG
# modifications: 5' biotin (so in the source)
# Target: lactoferrin (Lf) (bovine (from bovine milk), UniProt P24627 20-708)
# Assay: competition (indirect competitive enzyme-linked aptamer assay against immobilized cDNA S2); linear 25-500 nM Lf, LOD 14.01 nM (not a Kd); aptamer as SA-HRP conjugate; PBS pH 7.2, about 25 °C; Lf and recognition probe 5 min, then 30 min on cDNA-coated plate; PBS-T (0.05% Tween-20) washes
# Conditions: protein: commercial; label: biotin; coupled to SA-HRP in the recognition probe; capture strand S2 is not an exact complement (fewer G opposite the C run)
# Sequence of lactoferrin (Lf) (P24627 20-708): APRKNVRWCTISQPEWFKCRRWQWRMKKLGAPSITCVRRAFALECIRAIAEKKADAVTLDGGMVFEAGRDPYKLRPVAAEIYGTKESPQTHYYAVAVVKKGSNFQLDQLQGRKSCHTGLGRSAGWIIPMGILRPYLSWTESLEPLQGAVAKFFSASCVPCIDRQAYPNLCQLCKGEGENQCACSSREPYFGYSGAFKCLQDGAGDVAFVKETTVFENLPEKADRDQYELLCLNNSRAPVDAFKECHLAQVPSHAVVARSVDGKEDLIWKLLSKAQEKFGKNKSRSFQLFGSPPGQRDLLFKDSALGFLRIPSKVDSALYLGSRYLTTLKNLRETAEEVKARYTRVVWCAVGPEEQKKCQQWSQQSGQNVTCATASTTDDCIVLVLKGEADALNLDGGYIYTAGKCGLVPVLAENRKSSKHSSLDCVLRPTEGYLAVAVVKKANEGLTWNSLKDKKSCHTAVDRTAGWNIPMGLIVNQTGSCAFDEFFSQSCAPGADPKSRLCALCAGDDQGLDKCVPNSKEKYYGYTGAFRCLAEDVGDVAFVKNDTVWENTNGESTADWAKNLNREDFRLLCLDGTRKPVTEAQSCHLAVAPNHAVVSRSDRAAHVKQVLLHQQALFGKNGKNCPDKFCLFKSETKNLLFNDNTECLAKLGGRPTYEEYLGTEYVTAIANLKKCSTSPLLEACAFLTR
binder,measurement,value
B1,binding result,binds
